Like-named read-outs stand apart in the source and are kept apart here. Ends that are not written are not given here.
B1: Full-length recombinant human neurogranin with a His-tag at the N-terminus (natural protein)
chain: MDCCTENACSKPDDDILDIPLDDPGANAAAAKIQASFRGHMARKKIKSGERGRKGPGPGGPGGAGVARGGAGGGPSGD

Tests used:
Assay in all cases: SPR
[1] = biological target: T1, Calmodulin ( (human brain CaM or …, UniProt P0DP23 1-149))
[2] = biological target: T1, Calmodulin; remark: listed apart in the source
[3] = biological target: T1, Calmodulin; remark: listed apart in the source
[4] = biological target: T1, Calmodulin; remark: listed apart in the source

| Binder | koff [1] [s⁻¹] | kon [1] [M⁻¹ s⁻¹] | Kd [2] [nM] | Kd [3] [nM] | koff [3] [s⁻¹] | kon [3] [M⁻¹ s⁻¹] | Kd [4] [nM] |
| --- | --- | --- | --- | --- | --- | --- | --- |
| LKKFNARRKLKGAILTTMLA (not fully specified) [Peptide corresponding to the CaM-binding region of CaMKIIα (CaMKII 290-309)] | ~1 | ~1e+09 | 7.1 |  |  |  |  |
| B1 |  |  |  | 480 | 0.16 | 340000 | 19000 |

Source: publication PMC5518211 (Journal of Molecular Recognition, 2017)
